Reference: PMC9482095
Where two headings read alike, the source gives them in different places.

Experiments:
FOXO1 FKH wt [1] = target: T1, FOXO1 FKH wt (UniProt Q12778 151-265); assay: EMSA
FOXO1 FKH wt [2] = target: T1, FOXO1 FKH wt; assay: EMSA; remark: listed apart in the source

Binder | Kd (FOXO1 FKH wt [1]) [nM] | Kd (FOXO1 FKH wt [2]) [nM]
dsDBE2 (dsDNA) DNA 1: TAAGCTAGTCTTGTTTACATTTTGCTAGCAAT DNA 2: ATTGCTAGCAAAATGTAAACAAGACTAGCTTA | 90 | –
dsIRE (dsDNA) DNA 1: TAAGCTAGTGGTTTGTTTTGCTTGCTAGCAAT DNA 2: ATTGCTAGCAAGCAAAACAAACCACTAGCTTA | – | 200 ± 70
